In paper PMC3463355:

Columns and labels:
[1] = target: Nuc165, unlabeled mononucleosome on 165-bp 601 DNA; experiment: SEC-MALS
[2] = target: Nuc207, mononucleosome on 207-bp 601 DNA as used for SEC-MALS; experiment: SEC-MALS
[3] = target: N-parp (Zn1-Zn3 and BRCT) (UniProt P09874); experiment: HI-FI FRET
[4] = target: PARP-1 (full-length) V762A (human) (UniProt P09874); experiment: HI-FI FRET
[5] = target: N-parp (N-terminal half of PARP-1, amino acids 1-486) (human) (UniProt P09874); experiment: FRET or BRET
[6] = target: full-length human PARP-1 [change] (human) (UniProt P09874); experiment: FRET or BRET
[7] = target: nucleosome (of the N-parp/nucleosome complexes, data not shown); experiment: SEC-MALS

N-parp (N-terminal half of PARP-1, amino acids 1-486) (human), sequence (P09874 1-486): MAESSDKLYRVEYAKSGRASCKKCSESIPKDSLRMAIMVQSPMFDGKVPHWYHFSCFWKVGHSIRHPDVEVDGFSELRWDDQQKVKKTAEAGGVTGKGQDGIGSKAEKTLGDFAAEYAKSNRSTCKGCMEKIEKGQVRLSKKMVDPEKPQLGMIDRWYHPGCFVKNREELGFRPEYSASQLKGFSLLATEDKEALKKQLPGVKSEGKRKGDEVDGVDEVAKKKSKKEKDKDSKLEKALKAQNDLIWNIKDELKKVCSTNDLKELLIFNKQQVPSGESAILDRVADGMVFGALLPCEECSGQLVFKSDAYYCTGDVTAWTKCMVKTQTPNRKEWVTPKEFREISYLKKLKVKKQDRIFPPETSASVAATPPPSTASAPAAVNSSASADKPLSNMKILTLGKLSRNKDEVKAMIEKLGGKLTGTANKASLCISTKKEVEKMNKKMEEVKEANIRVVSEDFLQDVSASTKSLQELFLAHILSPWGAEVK
N-parp (Zn1-Zn3 and BRCT), sequence (P09874 1-486): as above
PARP-1 (full-length) V762A (human), sequence (P09874 whole entry V762A, the tested form may be a part): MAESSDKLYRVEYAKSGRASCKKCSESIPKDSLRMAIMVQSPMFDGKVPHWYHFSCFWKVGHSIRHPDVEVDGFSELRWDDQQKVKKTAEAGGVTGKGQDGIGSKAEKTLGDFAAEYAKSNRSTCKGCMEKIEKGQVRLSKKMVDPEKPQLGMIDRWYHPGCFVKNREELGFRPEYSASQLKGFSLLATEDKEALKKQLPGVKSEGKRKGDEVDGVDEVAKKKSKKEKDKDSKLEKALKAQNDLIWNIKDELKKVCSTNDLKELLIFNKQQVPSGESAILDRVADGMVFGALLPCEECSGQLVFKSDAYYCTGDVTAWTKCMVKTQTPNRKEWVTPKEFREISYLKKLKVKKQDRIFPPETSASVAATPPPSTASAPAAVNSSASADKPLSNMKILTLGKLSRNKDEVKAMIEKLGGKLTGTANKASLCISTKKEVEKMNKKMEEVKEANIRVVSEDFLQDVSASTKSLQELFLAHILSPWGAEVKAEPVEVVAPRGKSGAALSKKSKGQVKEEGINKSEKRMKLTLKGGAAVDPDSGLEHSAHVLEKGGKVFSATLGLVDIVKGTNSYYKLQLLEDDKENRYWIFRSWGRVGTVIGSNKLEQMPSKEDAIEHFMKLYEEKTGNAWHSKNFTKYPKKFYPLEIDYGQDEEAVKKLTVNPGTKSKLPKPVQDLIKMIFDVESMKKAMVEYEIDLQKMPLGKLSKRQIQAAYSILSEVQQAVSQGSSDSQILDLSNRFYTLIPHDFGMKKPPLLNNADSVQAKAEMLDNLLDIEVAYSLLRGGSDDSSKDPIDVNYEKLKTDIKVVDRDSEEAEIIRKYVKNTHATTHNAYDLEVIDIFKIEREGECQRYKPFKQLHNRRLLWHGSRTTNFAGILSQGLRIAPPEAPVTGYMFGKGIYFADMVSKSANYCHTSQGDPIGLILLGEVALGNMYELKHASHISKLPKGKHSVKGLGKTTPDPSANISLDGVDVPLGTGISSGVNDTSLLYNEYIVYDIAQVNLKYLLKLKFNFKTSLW
full-length human PARP-1 [change] (human), sequence (P09874 whole entry V762A): as the sequence (P09874 whole entry V762A, the tested form may be a part) above
N-parp (N-terminal half of PARP-1, amino acids 1-486), sequence (P09874 1-486): as the sequence (P09874 1-486) above

Substance | Kd [3] | Kd [4] | Kd [5] | other results
full-length human PARP-1 [change] (from UniProt P09874) (enzyme) |  |  |  | stoichiometry N [1]: 1; stoichiometry N [2]: 1
Nuc178 | 0.238 µM | 0.0846 µM |  | 
Nuc165 | 0.0578 µM | 0.0022 µM |  | 
Nuc207 | 0.0488 µM | 0.001 µM |  | 
Nuc147, mononucleosome on 147-bp 601 DNA, labeled with ATTO 647N at histone H4 [change] (complex) |  |  | > 0.5 µM | Kd [6]: > 0.5 µM
Nuc207, mononucleosome on 207-bp 601 DNA, labeled with ATTO 647N at histone H4 [change] (complex) |  |  | 0.0488 µM | 
N-parp (N-terminal half of PARP-1, amino acids 1-486) (from UniProt P09874 1-486) (domain or fragment) |  |  |  | stoichiometry N [7]: 1
Nuc165, mononucleosome on 165-bp 601 DNA, labeled with ATTO 647N at histone H4 [change] (complex) |  |  | 0.0578 µM | Kd [6]: 0.0022 µM
